Experimental data from PMC10528418 (Molecular cell, 2023).

T1: TFIIIC subunit τ138 (S. cerevisiae, UniProt P34111 1-1160)
T1 sequence (looked up): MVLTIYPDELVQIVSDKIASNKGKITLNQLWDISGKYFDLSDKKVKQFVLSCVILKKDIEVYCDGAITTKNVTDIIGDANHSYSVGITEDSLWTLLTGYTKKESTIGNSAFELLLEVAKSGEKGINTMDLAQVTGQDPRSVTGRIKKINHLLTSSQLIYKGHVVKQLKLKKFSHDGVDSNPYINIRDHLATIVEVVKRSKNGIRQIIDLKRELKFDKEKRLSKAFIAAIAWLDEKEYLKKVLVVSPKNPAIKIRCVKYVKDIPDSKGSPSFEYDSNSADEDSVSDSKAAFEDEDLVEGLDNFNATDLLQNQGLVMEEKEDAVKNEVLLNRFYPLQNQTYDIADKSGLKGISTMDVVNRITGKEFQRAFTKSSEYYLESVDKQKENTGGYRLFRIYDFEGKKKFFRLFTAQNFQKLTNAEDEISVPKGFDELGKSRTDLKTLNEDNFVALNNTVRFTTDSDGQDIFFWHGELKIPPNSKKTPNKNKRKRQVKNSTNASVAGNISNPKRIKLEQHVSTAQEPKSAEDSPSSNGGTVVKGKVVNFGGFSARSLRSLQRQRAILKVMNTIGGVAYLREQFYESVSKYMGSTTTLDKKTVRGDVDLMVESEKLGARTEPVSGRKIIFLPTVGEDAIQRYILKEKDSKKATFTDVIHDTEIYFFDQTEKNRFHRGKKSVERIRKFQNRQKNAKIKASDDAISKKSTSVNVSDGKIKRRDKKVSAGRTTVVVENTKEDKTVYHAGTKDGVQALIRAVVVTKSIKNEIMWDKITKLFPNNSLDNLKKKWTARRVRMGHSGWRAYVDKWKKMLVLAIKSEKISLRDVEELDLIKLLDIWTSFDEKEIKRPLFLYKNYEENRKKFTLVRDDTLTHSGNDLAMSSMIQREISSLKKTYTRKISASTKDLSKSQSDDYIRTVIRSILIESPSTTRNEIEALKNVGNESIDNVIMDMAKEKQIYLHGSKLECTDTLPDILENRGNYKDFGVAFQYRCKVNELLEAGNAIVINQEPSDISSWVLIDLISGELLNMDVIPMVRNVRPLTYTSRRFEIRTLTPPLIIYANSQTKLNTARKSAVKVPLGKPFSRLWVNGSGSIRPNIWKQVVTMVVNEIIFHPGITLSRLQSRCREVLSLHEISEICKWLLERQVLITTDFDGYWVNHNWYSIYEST

T2: TFIIIC subunit τ95 (S. cerevisiae, UniProt P32367 1-649)
T2 sequence (looked up): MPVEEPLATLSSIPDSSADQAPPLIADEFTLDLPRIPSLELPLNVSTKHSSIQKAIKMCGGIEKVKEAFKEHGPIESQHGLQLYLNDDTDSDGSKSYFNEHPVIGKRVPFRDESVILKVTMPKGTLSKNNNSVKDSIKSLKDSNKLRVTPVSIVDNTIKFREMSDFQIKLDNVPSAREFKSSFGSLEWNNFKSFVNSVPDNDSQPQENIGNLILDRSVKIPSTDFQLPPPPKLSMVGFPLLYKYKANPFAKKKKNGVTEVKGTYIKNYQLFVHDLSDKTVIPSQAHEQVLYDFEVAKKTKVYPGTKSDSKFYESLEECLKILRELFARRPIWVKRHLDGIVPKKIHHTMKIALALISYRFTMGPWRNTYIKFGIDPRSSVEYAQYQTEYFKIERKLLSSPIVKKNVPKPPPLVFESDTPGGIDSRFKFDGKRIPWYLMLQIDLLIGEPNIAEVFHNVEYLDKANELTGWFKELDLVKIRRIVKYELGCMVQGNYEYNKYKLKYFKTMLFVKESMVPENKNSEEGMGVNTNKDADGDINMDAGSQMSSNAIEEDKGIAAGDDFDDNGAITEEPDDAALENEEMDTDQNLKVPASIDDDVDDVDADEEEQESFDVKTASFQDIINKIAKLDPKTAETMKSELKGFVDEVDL

T3: TFIIIC subunit τ91 (S. cerevisiae, UniProt Q06339 1-672)
T3 sequence (looked up): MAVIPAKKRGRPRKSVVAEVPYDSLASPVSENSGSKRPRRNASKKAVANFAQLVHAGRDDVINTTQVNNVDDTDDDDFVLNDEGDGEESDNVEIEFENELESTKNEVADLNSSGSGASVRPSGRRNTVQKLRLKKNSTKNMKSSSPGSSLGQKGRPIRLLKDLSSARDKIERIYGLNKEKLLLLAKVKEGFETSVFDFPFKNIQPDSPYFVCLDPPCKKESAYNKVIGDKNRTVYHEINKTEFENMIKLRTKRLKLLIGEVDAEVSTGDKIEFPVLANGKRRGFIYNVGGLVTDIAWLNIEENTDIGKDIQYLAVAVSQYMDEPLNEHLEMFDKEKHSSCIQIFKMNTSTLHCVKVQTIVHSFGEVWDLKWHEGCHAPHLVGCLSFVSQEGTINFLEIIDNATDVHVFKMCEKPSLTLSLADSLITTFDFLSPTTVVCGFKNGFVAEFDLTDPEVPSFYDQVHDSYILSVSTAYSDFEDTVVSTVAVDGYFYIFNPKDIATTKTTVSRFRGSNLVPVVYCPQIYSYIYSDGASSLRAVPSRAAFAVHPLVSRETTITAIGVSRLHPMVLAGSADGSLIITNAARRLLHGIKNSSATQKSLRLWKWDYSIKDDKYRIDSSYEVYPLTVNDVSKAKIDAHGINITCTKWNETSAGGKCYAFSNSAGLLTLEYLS


Key:
Assay in all cases: cryo-EM structure
TFIIIC subunit τ138 = target: T1, TFIIIC subunit τ138
TFIIIC subunit τ95 = target: T2, TFIIIC subunit τ95
TFIIIC subunit τ91 = target: T3, TFIIIC subunit τ91

| binding result (TFIIIC subunit τ138) | binding result (TFIIIC subunit τ95) | binding result (TFIIIC subunit τ91) | Binder |
| --- | --- | --- | --- |
| binds | binds |  | TFIIIC subunit τ55 (natural protein, S. cerevisiae, UniProt Q12415 1-435, looked up) MVVNTIYIARHGYRSNWLPEGPYPDPLTGIDSDVPLAEHGVQQAKELAHYLLSLDNQPEAAFASPFYRCLETVQPIAKLLEIPVYLERGIGEWYRPDRKPVIPVPAGYEILSKFFPGVISQEWDSTLTPNEKGETEQEMYMRFKKFWPLFIERVEKEYPNVECILLVTHAASKIALGMSLLGYDNPRMSLNENGDKIRSGSCSLDKYEILKKSYDTIDETDDQTSFTYIPFSDRKWVLTMNGNTEFLSSGEEMNWNFDCVAEAGSDADIKKRQMTKKTSSPIPEADDQTEVETVYISVDIPSGNYKERTEIAKSAILQYSGLETDAPLFRIGNRLYEGSWERLVGTELAFPNAAHVHKKTAGLLSPTEENETTNAGQSKGSSTANDPNIQIQEEDVGLPDSTNTSRDHTGDKEEVQSEKIYRIKERIVLSNVRPM |
| binds |  | binds | TFIIIC subunit τ60 (natural protein, S. cerevisiae) MKLLKDLLVDRKEFEDWKNNLTWARDGTLYLTTFPDISIGQPKYAKDINCNSKNLFHVKEFPLEFENKLDFELAQQNGLLNSQPVCYPRVCKPSPIDDWMAVLSNNGNVSVFKDNKMLTNLDSKGNLSSRTYHCFEWNPIESSIVVGNEDGELQFFSIRKNSENTPEFYFESSIRLSDAGSKDWVTHIVWYEDVLVAALSNNSVFSMTVSASSHQPVSRMIQNASRRKITDLKIVDYKVVLTCPGYVHKIDLKNYSISSLKTGSLENFHIIPLNHEKESTILLMSNKTSYKVLLEDELHVTADNIIAPYLEKKFKKWSTIWNEFNNYETTLVIHGISLSPDGYSIAIVYDMERVAFKYKIASEQSFNIMFAPLYHTWTISERAVGLAWYQTYQIYNQSLPKLPENFSMNKKLLNGNYPISLDFQSYLNALMKSEEMRIIMFLNMTIDKPSILSFLEALYEYAINKKSELTNSFDLACVLSIAAILKREAPIYNGTLLMKNSFLEETFNLESFTADPETVTSTTNNTWKRCGVTLLPILTTHVKICPVSKQRVIDIKRDDLNDYGWFTRGLLERFNEISVYCGTTLEVM |
